# Data reported in the Immune Epitope Database (IEDB).
# Legend:
# [1] = target: HLA-B*58:01; assay: IEDB peptide-MHC binding, purified MHC/direct/fluorescence; filed as Kd, often an IC50 or EC50 that approximates it; ≥ and ≤ were set here for values at or beyond the usual limits of such assays; details: source organism: Mycobacterium tuberculosis variant bovis BCG str. Pasteur 1173P2
# [2] = target: HLA-A*30:02; assay: IEDB peptide-MHC binding, purified MHC/competitive/radioactivity; filed as Kd, often an IC50 or EC50 that approximates it; ≥ and ≤ were set here for values at or beyond the usual limits of such assays
# [3] = target: HLA-A*24:02; assay: as above
# [4] = target: HLA-A*26:01; assay: as above
# [5] = target: HLA-A*29:02; assay: as above
# [6] = target: HLA-A*23:01; assay: as above
# [7] = target: HLA-A*01:01; assay: as above
# [8] = target: HLA-A*02:01; assay: IEDB peptide-MHC binding, purified MHC/direct/fluorescence; filed as Kd, often an IC50 or EC50 that approximates it; ≥ and ≤ were set here for values at or beyond the usual limits of such assays; details: source organism: Bacillus licheniformis
# [9] = target: HLA-B*15:01; assay: as above
# [10] = target: HLA-A*69:01; assay: as above
# [11] = target: HLA-A*11:01; assay: as above
# [12] = target: HLA-A*31:01; assay: as above
# [13] = target: HLA-A*01:01; assay: as above
# [14] = target: HLA-A*03:01; assay: as above
# [15] = target: HLA-B*27:05; assay: as above; details: source organism: Homo sapiens
# [16] = target: HLA-A*02:01; assay: IEDB peptide-MHC binding, purified MHC/competitive/fluorescence; filed as Kd, often an IC50 or EC50 that approximates it; ≥ and ≤ were set here for values at or beyond the usual limits of such assays
# [17] = target: HLA-B*40:01; assay: IEDB peptide-MHC binding, purified MHC/direct/fluorescence; filed as Kd, often an IC50 or EC50 that approximates it; ≥ and ≤ were set here for values at or beyond the usual limits of such assays; details: source organism: Mycobacterium tuberculosis
# [18] = target: HLA-B*07:02; assay: as above; details: source organism: Homo sapiens
# [19] = target: HLA-A*30:01; assay: IEDB peptide-MHC binding, purified MHC/competitive/radioactivity; filed as Kd, often an IC50 or EC50 that approximates it; ≥ and ≤ were set here for values at or beyond the usual limits of such assays; details: source organism: Dengue virus 3 Martinique/1243/1999
# [20] = target: HLA-B*08:01; assay: as above; details: source organism: Dengue virus 3 Martinique/1243/1999
# [21] = target: HLA-A*11:01; assay: as above; details: source organism: Vaccinia virus WR
# [22] = target: HLA-A*33:01; assay: as above
# [23] = target: HLA-A*31:01; assay: as above; details: source organism: Vaccinia virus WR
# [24] = target: HLA-A*03:01; assay: as above; details: source organism: Vaccinia virus WR
# [25] = target: HLA-A*68:01; assay: as above
# [26] = source organism: SARS coronavirus Tor2
# [27] = source organism: Bacillus licheniformis
# [28] = source organism: Mammarenavirus whitewaterense
# [29] = source organism: Lassa virus Josiah
# [30] = source organism: Xanthobacter autotrophicus
# [31] = source organism: Mammarenavirus machupoense
# [32] = source organism: Dengue virus 3 Martinique/1243/1999
# [33] = source organism: Cryptosporidium parvum
# [34] = source organism: Vaccinia virus WR
# [35] = source organism: Mammarenavirus brazilense
# [36] = source organism: Triticum aestivum
# [37] = source organism: Burkholderia lata
# [38] = source organism: Giardia intestinalis
# [39] = source organism: Lassa virus GA391
# [40] = source organism: Mycoplasmoides genitalium
Sequence,"Kd [2, 26]","Kd [3, 26]","Kd [4, 26]","Kd [5, 26]","Kd [6, 26]","Kd [7, 26]",further results
AAAAPYAGW,,,,,,,Kd [1]: 0.0271 µM
ACADGTRHTY,0.0328 µM,≥ 70.3 µM,≥ 86.9 µM,6.17 µM,≥ 70 µM,2.16 µM,
ALMEITSRY,,,,,,,"Kd [8]: 4.81 µM; Kd [9, 27]: 0.0905 µM; Kd [10, 27]: 11.7 µM; Kd [11, 27]: 0.605 µM; Kd [12, 27]: 5.28 µM; Kd [13, 27]: 1.04 µM; Kd [14, 27]: 0.259 µM"
ARLFGIRAK,,,,,,,Kd ([11]; source organism: Homo sapiens): 4.24 µM; Kd [15]: 1.04 µM; Kd ([12]; source organism: Homo sapiens): 2.94 µM; Kd ([14]; source organism: Homo sapiens): 1.24 µM
ATDFKFAMY,,,,,,,Kd ([9]; source organism: Homo sapiens): 4.1 µM; Kd ([11]; source organism: Homo sapiens): 2.41 µM; Kd ([13]; source organism: Homo sapiens): 0.135 µM; Kd ([14]; source organism: Homo sapiens): 7.81 µM
DHHFTPQII,,,,,,,"Kd [2, 28]: ≥ 50.8 µM; Kd [3, 28]: ≥ 43.9 µM; Kd [4, 28]: ≥ 77.9 µM; Kd [5, 28]: 2.97 µM; Kd [6, 28]: 11.2 µM; Kd [7, 28]: 0.0615 µM"
DYLVSTQEF,3.35 µM,≥ 43.9 µM,14.5 µM,0.259 µM,18.8 µM,≥ 78.1 µM,
ETLLPLTQY,4.31 µM,≥ 77.6 µM,0.0435 µM,0.262 µM,≥ 77.8 µM,≥ 33.1 µM,
FIAQSKGLY,0.0245 µM,≥ 77.6 µM,0.0884 µM,0.00494 µM,≥ 77.8 µM,0.465 µM,
FYLYLTFYF,≥ 96.8 µM,≥ 77.6 µM,2.05 µM,≥ 75 µM,≥ 29.3 µM,3.69 µM,
GIDVTDLFA,,,,,,,"Kd [2, 29]: ≥ 40.5 µM; Kd [3, 29]: ≥ 77.5 µM; Kd [4, 29]: ≥ 77.9 µM; Kd [5, 29]: ≥ 78.9 µM; Kd [6, 29]: ≥ 68.4 µM; Kd [7, 29]: 0.261 µM"
GVWTRDGNR,,,,,,,"Kd [12, 30]: 0.059 µM; Kd [14, 30]: ≥ 20 µM"
ILNDEQLNL,,,,,,,Kd ([16]; source organism: Vaccinia virus Tian Tan): 0.0007 µM
ISAGFSLWIY,0.00964 µM,≥ 70.3 µM,1.09 µM,0.0023 µM,≥ 28.8 µM,0.0523 µM,
KLGIGNSPV,,,,,,,Kd ([16]; source organism: Vaccinia virus Copenhagen): 0.006 µM
LCMLNNSFYY,,,,,,,"Kd [2, 31]: 0.0117 µM; Kd [3, 31]: ≥ 47.8 µM; Kd [4, 31]: ≥ 69.7 µM; Kd [5, 31]: 0.00543 µM; Kd [6, 31]: ≥ 29.3 µM; Kd [7, 31]: 0.612 µM"
LEEIGILLL,,,,,,,Kd [17]: 0.011 µM
LPRWPPPQL,,,,,,,Kd ([10]; source organism: Homo sapiens): 5.5 µM; Kd [18]: 0.164 µM
MFKKRNLTI,,,,,,,"Kd [3, 32]: 0.158 µM; Kd [6, 32]: 0.475 µM; Kd [19]: 0.143 µM; Kd [20]: 0.0157 µM"
MIRTWRQNK,,,,,,,"Kd [12, 33]: 0.364 µM; Kd [14, 33]: 0.226 µM"
MSFLEKDAPY,0.00307 µM,≥ 70.3 µM,0.262 µM,0.224 µM,≥ 70 µM,0.0644 µM,
NMKWKFNAL,,,,,,,Kd ([16]; source organism: Campylobacter jejuni subsp. jejuni NCTC 11168 = ATCC 700819): ≥ 20 µM
NSGPDDQIGY,6.79 µM,≥ 33.7 µM,8.42 µM,7.38 µM,≥ 70 µM,1.01 µM,

Sequence,"Kd [2, 26]","Kd [3, 26]","Kd [4, 26]","Kd [5, 26]","Kd [6, 26]","Kd [7, 26]",further results
NTLISSDGAR,,,,,,,"Kd [21]: 0.359 µM; Kd [22, 34]: 0.286 µM; Kd [5, 34]: ≥ 46.9 µM; Kd [23]: 0.26 µM; Kd [24]: 2.35 µM; Kd [25, 34]: 0.00607 µM"
NYFKKVDGI,11.8 µM,≥ 20.3 µM,≥ 77.9 µM,2.53 µM,11.6 µM,≥ 51.7 µM,
PTLVPQEHY,4.51 µM,≥ 77.6 µM,≥ 102 µM,10.9 µM,≥ 77.8 µM,9.07 µM,
QLFKPLTKK,,,,,,,"Kd [22, 26]: ≥ 77.7 µM; Kd [25, 26]: 16.8 µM; Kd ([12]; source organism: SARS-CoV1): 0.981 µM"
QMISSIDRFF,,,,,,,"Kd [3, 35]: 4.69 µM; Kd [5, 35]: 1.85 µM; Kd [6, 35]: 0.758 µM"
QYIKWPWYVW,10.6 µM,0.00248 µM,≥ 69.7 µM,3.88 µM,0.000784 µM,≥ 32 µM,
QYPSGQGSF,,,,,,,"Kd [2, 36]: 0.00117 µM; Kd [3, 36]: 3.39 µM; Kd [4, 36]: ≥ 49.3 µM; Kd [5, 36]: 0.175 µM; Kd [6, 36]: ≥ 35.7 µM; Kd [7, 36]: ≥ 61.5 µM"
RMYIFFASF,1.24 µM,0.106 µM,7.04 µM,2.1 µM,0.0753 µM,≥ 20.9 µM,
RYNLDPDSI,,,,,,,"Kd [3, 35]: 17.7 µM; Kd [5, 35]: ≥ 34.1 µM; Kd [6, 35]: 7.49 µM"
SIKRNYPYLF,,,,,,,"Kd [3, 35]: 1.02 µM; Kd [5, 35]: 2.34 µM; Kd [6, 35]: 0.758 µM"
SINDPRWGR,,,,,,,"Kd [12, 37]: 0.0274 µM; Kd [14, 37]: ≥ 20 µM"
SLRPNDIVY,,,,,,,"Kd [9, 38]: 0.15 µM; Kd [11, 38]: 7.04 µM; Kd [14, 38]: 13.6 µM"
SWFITQRNF,0.000215 µM,≥ 40 µM,≥ 77.9 µM,0.0162 µM,3.9 µM,≥ 78.1 µM,
SYATHHDKF,≥ 85.7 µM,≥ 105 µM,≥ 77.9 µM,≥ 22.6 µM,≥ 90.7 µM,≥ 39.6 µM,
TLAAAANSY,,,,,,,Kd ([9]; source organism: Mycobacterium tuberculosis C): 0.571 µM
TLFPGDDDL,,,,,,,"Kd [16, 34]: 0.394 µM"
TTTGIGYQPY,0.204 µM,≥ 70.3 µM,0.0568 µM,0.0088 µM,≥ 70 µM,0.126 µM,
TYTEIEPKL,≥ 78.9 µM,≥ 29.5 µM,≥ 77.9 µM,12.2 µM,≥ 21.5 µM,≥ 78.1 µM,
VTFQGKFKK,,,,,,,"Kd [22, 26]: 8.58 µM; Kd [25, 26]: 0.0133 µM; Kd ([12]; source organism: SARS-CoV1): 0.0703 µM"
VYHITVSQI,≥ 81.1 µM,0.0266 µM,≥ 77.9 µM,≥ 28.9 µM,0.098 µM,≥ 31.3 µM,
YCNYSRYWYL,,,,,,,"Kd [2, 39]: 11.9 µM; Kd [3, 39]: 3.28 µM; Kd [4, 39]: ≥ 69.7 µM; Kd [5, 39]: 8.34 µM; Kd [6, 39]: 1.15 µM; Kd [7, 39]: ≥ 70.4 µM"
YSDIPRLKK,,,,,,,"Kd [10, 40]: 0.412 µM; Kd [11, 40]: 0.0927 µM; Kd [12, 40]: 0.767 µM; Kd [13, 40]: 1.64 µM; Kd [14, 40]: 0.372 µM"
YSELRPDTRY,0.165 µM,≥ 36 µM,12 µM,0.14 µM,≥ 70 µM,0.00622 µM,
